Target: the molecule itself
Test: SEC; HiLoad 16/600 Superdex 75 pg in PBS or 20 mM sodium phosphate, 200 μM EDTA pH 8; oligomeric state verified in Supporting Figure S2 (method not shown)

B1: Borrelia burgdorferi outer surface protein C (residues 11-191) (natural protein)
chain: ASTNPDESAKGPNLTEISKKITDSNAVVLAVKEVEALLSSIDELAKTIGKKIEANGLGNEADKNGSLLAGAYAISTLIKQKLDGLKGLEGLNKEIAEAKKCSEAFTKKLQDSNADLGKHNATDADSKEAILKTNGTKTKGAKELEELFKSVESLSKAAKEALSNSVKELTSPVVAESPKKP
notes: outer surface protein C of Borrelia burgdorferi sensu lato, UniProt P94245, residues 11-191; the N-terminal signal peptide was replaced by His-tagged polyubiquitin-B and a TEV protease cleavage site; also called OspC; Bb outer surface protein C; not shown: polyubiquitin-B with C-terminal His-tag (UniProt J3QS39), N-terminal, cleaved
  stoichiometry N: 2
